Laboratory results published in publication PMC8096270.
pKd: −log10 of the molar value.

Columns and labels:
[1] = target: Full-length MMTV Gag polypeptide with a C-terminus hexa-histidine tag (Pr77^Gag-His6-tag protein) (mouse mammary tumor virus (MMTV)); test: dynamic light scattering; Pr77^Gag in storage buffer (50 mM Tris-HCl pH 8.0, 1 M NaCl), 20°C; mean hydrodynamic radius based on number distribution
[2] = tested on: Pr77Gag (Gag precursor polyprotein) (Mouse mammary tumor virus (strain not stated; HYB-MTV?)); test: EMSA; conditions: competition, filter binding: 30 mM Tris pH 7.5, 300 mM NaCl, 5 mM MgCl2, DTT (10 mM in protein diluent), 0.01% Triton X-100, BSA, 37 C 30 min then ice …

Full-length MMTV Gag polypeptide with a C-terminus hexa-histidine tag (Pr77^Gag-His6-tag protein) (natural protein)
stoichiometry N [1]: 3

WT unspliced gRNA nt 1-712 (SA35)
pKd [2]: 6.32
